The text below walks through data of patent US20070224194A1, “Methods for Inhibiting Angiogenesis and/or Lymphangiogenesis” (LUDWIG INSTITUTE FOR CANCER RESEARCH, priority 2004, published 2007).

Read-outs that look alike come from different tables or passages of the source.

Experiment [1] has as its target T1, extracellular domain of human VEGFR-2 (VEGFR-2-Ig) (Homo sapiens, UniProt P35968).
T1 construct: soluble fusion proteins consisting of the extracellular domains of human VEGFR-1, VEGFR-2 or VEGFR-3; made in house; host or cells: 293EBNA cells (conditioned media, captured on protein-A sepharose)
The experiment is described as follows: Precipitation with soluble receptor VEGFR-2-Ig from LoVo conditioned media. The experiment is classed as binding. Particulars: conditioned media of LoVo cells co-transfected with VEGF-D-FULL-N-FLAG and furin. How it is done:
(§1) Binding to receptor extracellular domains was examined using soluble fusion proteins consisting of the extracellular domains of human VEGFR-1, VEGFR-2 or VEGFR-3 joined to the Fe portions of human IgG (referred to as VEGFR-1-Ig (R&D Systems), VEGFR-2-Ig and VEGFR-3-Ig) (Achen et al, Proc. Natl. Acad. Sci. USA 95 548-553, 1998). Protein-A sepharose beads were incubated overnight with the conditioned media of 293EBNA cells expressing VEGFR-1-Ig, VEGFR-2-Ig or VEGFR-3-Ig to precipitate the soluble receptor constructs. The soluble receptors bound to protein-A sepharose beads were recovered by centrifugation (5 minutes, 250×g, 4° C.) and washed twice with binding buffer (0.5% (w/v) BSA, 0.02% (v/v) Tween 20, 10 μg/ml heparin in phosphate buffered saline). The soluble receptors bound to protein-A sepharose beads were then incubated with the conditioned media of LoVo cells, that had been co-transfected with pVDAPEX FULL-N-FLAG and pcDNA3:furin, for three hours at room temperature, and washed twice with binding buffer. Proteins bound to the VEGFR-2-Ig and VEGFR-3-Ig constructs were analysed by reducing SDS-PAGE and Western blotting with a biotinylated antibody against the VHD of human VEGF-D (R&D Systems), followed by Streptavidin-horse radish peroxidase conjugate (Zymed).

Experiment [2] deals with T2, extracellular domain of human VEGFR-3 (VEGFR-3-Ig) (Homo sapiens, UniProt P35916).
T2 construct: soluble fusion proteins consisting of the extracellular domains of human VEGFR-1, VEGFR-2 or VEGFR-3; made in house; host or cells: 293EBNA cells (conditioned media, captured on protein-A sepharose)
T2 sequence (P35916 25-775 limits assumed): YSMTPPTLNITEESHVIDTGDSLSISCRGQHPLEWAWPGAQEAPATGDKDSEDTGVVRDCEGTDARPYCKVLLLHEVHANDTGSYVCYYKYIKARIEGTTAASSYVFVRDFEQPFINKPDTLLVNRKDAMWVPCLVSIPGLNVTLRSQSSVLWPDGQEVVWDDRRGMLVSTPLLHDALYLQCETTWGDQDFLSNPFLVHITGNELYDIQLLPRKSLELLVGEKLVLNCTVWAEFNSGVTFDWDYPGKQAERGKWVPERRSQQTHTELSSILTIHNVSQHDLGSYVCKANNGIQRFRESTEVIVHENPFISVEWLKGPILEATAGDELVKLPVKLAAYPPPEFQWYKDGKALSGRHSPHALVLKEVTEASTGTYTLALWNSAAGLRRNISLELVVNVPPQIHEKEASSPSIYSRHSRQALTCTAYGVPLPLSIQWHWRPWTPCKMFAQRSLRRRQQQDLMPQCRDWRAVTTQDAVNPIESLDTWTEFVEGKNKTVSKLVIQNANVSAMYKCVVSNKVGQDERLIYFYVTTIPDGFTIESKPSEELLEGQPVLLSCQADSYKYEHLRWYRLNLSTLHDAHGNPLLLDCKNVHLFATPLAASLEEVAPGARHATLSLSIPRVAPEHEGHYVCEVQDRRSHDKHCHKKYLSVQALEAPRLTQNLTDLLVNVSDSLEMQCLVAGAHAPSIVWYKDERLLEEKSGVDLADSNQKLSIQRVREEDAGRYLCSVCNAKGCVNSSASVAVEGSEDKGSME
In words: Precipitation with soluble receptor VEGFR-3-Ig from LoVo conditioned media. It is filed as binding. Particulars: conditioned media of LoVo cells co-transfected with VEGF-D-FULL-N-FLAG and furin. As for the experimental part: as §1

The target in experiment [3] is T3, VEGFR-2 (Homo sapiens, UniProt P35968). To be noted: full-length form that could be processed, cited from earlier work.
T3 sequence (P35968 20-1356): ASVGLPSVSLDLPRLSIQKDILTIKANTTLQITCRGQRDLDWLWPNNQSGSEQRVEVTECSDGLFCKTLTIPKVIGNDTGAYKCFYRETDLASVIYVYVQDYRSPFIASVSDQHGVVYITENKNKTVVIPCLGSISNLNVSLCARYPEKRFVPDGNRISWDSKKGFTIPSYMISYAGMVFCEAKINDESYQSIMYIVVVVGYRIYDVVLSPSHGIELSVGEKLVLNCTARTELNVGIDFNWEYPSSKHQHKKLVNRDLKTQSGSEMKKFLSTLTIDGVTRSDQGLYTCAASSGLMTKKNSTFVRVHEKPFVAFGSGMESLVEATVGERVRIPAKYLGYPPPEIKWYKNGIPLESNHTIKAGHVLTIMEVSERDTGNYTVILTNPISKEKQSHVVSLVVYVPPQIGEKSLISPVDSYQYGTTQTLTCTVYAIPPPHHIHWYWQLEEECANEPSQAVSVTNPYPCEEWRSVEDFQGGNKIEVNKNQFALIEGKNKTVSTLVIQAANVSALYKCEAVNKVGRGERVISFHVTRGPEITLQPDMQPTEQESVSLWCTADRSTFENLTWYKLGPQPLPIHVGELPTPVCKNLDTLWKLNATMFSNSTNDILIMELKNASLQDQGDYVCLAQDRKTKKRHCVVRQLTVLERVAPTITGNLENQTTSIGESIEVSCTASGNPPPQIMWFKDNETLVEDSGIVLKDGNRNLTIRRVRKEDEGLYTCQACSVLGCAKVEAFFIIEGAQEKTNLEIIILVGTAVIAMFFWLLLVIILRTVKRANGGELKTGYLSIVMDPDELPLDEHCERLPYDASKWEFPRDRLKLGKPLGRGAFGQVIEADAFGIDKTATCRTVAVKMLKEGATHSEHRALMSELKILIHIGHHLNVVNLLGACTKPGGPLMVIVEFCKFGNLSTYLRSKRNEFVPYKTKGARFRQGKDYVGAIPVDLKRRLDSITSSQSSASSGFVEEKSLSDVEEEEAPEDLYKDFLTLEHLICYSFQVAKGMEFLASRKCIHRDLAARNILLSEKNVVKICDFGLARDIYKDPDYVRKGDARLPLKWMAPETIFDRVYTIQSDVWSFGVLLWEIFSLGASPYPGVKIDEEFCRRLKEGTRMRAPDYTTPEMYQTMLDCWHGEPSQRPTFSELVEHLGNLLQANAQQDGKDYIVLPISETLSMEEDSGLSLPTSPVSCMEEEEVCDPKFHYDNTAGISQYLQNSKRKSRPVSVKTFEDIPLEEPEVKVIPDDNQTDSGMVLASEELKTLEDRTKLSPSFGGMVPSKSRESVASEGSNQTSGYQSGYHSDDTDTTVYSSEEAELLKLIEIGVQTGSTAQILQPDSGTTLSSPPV
In experiment [4] the target is T4, VEGFR-3 (Homo sapiens, UniProt P35916). The experiment is described as follows: Biosensor analysis (surface plasmon resonance) of VEGF-D ligands on VEGFR-3. It is filed as binding. How it is done: (§2) To determine the relative affinities of the ligands VEGF-DSSTS.IISS, VEGF-D-FULL-N-FLAG and mature VEGF-D (designated VEGF-DΔNΔC) for VEGFR-2 and VEGFR-3, the relative binding kinetics for these interactions was analyzed by biosensor analysis using surface plasmon resonance detection (Nice et al., Bioessays, 21:339-352, 1999). The preparations of VEGF-DSSTS.IISS and VEGF-DΔNΔC used for this analysis each consisted of one VEGF-D species devoid of other forms of VEGF-D but the preparation of VEGF-D-FULL-N-FLAG did contain traces of partially processed as well as full-length material, reflecting the capacity of wild-type full-length VEGF-D to be proteolytically processed in the 293EBNA cell cultures) from which these proteins were purified (see FIG. 10B). The binding constants for the interactions were obtained by analysis of the initial dissociation phase to obtain the kd, which was then used to constrain a global analysis of the association region of the curves, using regions of the curves where a 1:1 Langmurian model appeared to be operative.
T4 sequence (P35916 25-1363): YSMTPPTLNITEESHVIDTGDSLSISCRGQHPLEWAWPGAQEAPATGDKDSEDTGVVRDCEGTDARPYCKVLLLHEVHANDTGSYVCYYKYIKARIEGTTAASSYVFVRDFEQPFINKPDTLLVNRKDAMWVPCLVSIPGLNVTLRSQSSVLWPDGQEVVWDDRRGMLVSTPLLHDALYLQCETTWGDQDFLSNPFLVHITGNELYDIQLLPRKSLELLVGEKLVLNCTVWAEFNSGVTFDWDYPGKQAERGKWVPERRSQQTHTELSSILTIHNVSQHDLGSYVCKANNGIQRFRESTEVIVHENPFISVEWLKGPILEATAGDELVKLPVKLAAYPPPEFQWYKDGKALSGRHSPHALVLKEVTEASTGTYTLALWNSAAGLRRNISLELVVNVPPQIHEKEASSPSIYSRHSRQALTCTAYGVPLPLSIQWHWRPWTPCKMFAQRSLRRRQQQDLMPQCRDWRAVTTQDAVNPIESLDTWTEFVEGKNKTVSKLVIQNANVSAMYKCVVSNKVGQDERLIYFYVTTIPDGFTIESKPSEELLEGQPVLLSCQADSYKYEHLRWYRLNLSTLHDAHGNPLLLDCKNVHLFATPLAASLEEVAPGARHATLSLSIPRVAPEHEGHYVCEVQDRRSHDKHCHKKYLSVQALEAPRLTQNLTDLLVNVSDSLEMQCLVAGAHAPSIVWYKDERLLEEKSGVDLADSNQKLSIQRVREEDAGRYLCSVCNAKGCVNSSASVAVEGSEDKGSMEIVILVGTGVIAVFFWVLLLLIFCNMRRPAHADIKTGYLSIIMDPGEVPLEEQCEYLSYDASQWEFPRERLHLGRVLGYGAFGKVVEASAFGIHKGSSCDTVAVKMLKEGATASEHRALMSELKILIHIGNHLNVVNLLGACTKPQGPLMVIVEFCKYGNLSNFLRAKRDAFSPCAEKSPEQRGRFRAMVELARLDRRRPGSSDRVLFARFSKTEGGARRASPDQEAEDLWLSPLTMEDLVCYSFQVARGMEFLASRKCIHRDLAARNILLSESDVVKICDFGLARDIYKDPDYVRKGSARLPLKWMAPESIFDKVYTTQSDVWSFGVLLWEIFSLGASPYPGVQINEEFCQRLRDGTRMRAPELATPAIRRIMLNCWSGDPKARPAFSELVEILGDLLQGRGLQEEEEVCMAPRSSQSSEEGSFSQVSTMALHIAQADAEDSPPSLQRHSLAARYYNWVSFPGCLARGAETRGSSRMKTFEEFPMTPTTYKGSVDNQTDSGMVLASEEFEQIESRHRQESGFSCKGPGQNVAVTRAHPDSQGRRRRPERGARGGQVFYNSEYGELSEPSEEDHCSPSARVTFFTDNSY

The target of experiment [5] is T3, VEGFR-2. The experiment is described as follows: Biosensor analysis (surface plasmon resonance) of VEGF-D ligands on VEGFR-2. The experiment is classed as binding. To be noted: 1:1 Langmurian model. How it is done:
as §2

Experiment [6] has as its target T4, VEGFR-3. Particulars: cited from earlier work.

T1 sequence (P35968 20-764 limits assumed): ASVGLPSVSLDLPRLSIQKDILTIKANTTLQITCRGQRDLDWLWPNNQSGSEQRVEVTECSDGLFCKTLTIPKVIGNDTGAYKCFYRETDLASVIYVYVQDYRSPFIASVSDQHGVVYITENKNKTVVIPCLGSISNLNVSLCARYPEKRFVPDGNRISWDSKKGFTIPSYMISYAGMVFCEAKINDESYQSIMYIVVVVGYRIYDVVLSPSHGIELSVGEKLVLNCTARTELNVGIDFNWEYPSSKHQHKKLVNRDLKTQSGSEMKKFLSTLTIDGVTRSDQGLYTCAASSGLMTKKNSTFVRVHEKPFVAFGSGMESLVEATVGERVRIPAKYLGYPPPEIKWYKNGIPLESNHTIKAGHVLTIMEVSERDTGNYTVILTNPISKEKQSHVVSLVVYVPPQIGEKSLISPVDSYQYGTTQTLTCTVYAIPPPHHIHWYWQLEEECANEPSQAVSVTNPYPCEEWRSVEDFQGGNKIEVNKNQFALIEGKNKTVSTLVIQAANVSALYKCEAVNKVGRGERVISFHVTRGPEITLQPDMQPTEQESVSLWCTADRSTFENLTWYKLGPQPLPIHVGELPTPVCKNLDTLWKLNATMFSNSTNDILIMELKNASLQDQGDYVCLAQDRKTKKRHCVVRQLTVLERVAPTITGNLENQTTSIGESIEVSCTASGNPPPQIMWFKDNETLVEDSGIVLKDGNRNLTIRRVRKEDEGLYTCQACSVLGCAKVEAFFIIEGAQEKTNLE

B1: mature form of VEGF-D generated by furin: ~21 kDa VEGF-D species from LoVo cells co-transfected with VEGF-D-FULL-N-FLAG and furin expression constructs (protein)
chain: FAATFYDIETLKVIDEEWQRTQCSPRETCVEVASELGKSTNTFFKPPCVNVFRCGGCCNEESLICMNTSTSYISKQLFEISVPLTSVPELVPVKVANHTGCKCLPTAPRHPYSIIRR
As to B1, in experiment [1], the “binding to the extracellular domain of VEGFR-2” value is on record as “binds”. For the same molecule, in experiment [2], the “binding to the extracellular domain of VEGFR-3” value was “binds”.

B2: mature VEGF-D: mature form of VEGF-D consisting of dimers of the VHD, lacking both propeptides (protein)
chain: FAATFYDIETLKVIDEEWQRTQCSPRETCVEVASELGKSTNTFFKPPCVNVFRCGGCCNEESLICMNTSTSYISKQLFEISVPLTSVPELVPVKVANHTGCKCLPTAPRHPYSIIRR
On to B2, for which the “affinity for VEGFR-2 relative to full-length (unprocessed) VEGF-D, previously reported” value in experiment [3] is reported as approximately 290 fold; in experiment [3] (listed as mature form of VEGF-D) it was “approximately 290 fold”. Besides, the “affinity for VEGFR-3 relative to VEGF-DSSTS.IISS” value in experiment [4] is listed as approximately 18 fold. Moreover, in experiment [5], the “apparent affinity for VEGFR-2 relative to unprocessed mutant VEGF-DSSTS.IISS” value is recorded as ~17,000 fold. Moreover, the “affinity for VEGFR-3 relative to unprocessed VEGF-D, previously reported” value in experiment [6] is listed as approximately 40 fold.
